# Laboratory results from publication PMC3526519, “Rationally re-designed mutation of NAD-independent L-lactate dehydrogenase: high optical resolution of racemic mandelic acid by the engineered Escherichia coli” (Microbial Cell Factories, 2012).
# Columns and labels:
# [1] = target: T1, L-iLDH (NAD-independent L-lactate dehydrogenase) (Stutzerimonas stutzeri, UniProt I1SLB1, V108A); experiment: DCIP reduction at […] nm, double-reciprocal plots; assay type: biochemical; details: competitive versus L-mandelate; 0.0625 mM DCIP, 50 mM Tris-HCl pH 7.5, 30 °C
# T1 construct: gene lldD; membrane flavoprotein; wild-type prepared as in earlier report
# T1 sequence (I1SLB1 1-391 V108A): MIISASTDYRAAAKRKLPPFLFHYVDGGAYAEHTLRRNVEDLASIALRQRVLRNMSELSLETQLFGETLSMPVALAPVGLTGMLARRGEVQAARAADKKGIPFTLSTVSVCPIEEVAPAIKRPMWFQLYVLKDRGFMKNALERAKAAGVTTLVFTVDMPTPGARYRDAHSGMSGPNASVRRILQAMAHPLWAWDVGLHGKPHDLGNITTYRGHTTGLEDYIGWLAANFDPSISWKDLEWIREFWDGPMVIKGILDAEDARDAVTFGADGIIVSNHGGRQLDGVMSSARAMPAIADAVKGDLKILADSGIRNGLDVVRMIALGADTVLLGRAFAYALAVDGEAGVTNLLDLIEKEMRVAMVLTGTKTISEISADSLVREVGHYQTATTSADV
# O=C(O)[C@@H](O)c1ccccc1 = test system: T2, O=C(O)[C@@H](O)c1ccccc1; experiment: purified protein; assay type: biochemical, Stutzerimonas stutzeri; details: 0.0625 mM DCIP as electron acceptor, 50 mM Tris-HCl pH 7.5, 30 °C
# T2 construct: membrane flavoprotein; wild-type prepared as in earlier report
# C[C@H](O)C(=O)O = test system: T3, C[C@H](O)C(=O)O; experiment: purified protein; assay type: biochemical, Stutzerimonas stutzeri; details: 0.0625 mM DCIP as electron acceptor, 50 mM Tris-HCl pH 7.5, 30 °C
# T3 construct: membrane flavoprotein; wild-type prepared as in earlier report
# purified protein [2] = substrate: O=C(O)[C@@H](O)c1ccccc1; experiment: purified protein; assay type: biochemical, Stutzerimonas stutzeri; details: 0.0625 mM DCIP as electron acceptor, 50 mM Tris-HCl pH 7.5, 30 °C
# purified protein [3] = substrate: C[C@H](O)C(=O)O; experiment: purified protein; assay type: biochemical, Stutzerimonas stutzeri; details: 0.0625 mM DCIP as electron acceptor, 50 mM Tris-HCl pH 7.5, 30 °C
molecule,measurement,setting,value
O=C(O)[C@H](O)c1ccccc1 [D-mandelate],Ki,[1],5.5 ± 0.5 mM
L-iLDH (NAD-independent L-lactate dehydrogenase) (Stutzerimonas stutzeri; V108A),Km,O=C(O)[C@@H](O)c1ccccc1,1600 ± 100 µM
same,kcat,O=C(O)[C@@H](O)c1ccccc1,97 ± 13 s⁻¹
same,kcat/Km,O=C(O)[C@@H](O)c1ccccc1,61000 M⁻¹ s⁻¹
same,Km,C[C@H](O)C(=O)O,800 ± 100 µM
same,kcat,C[C@H](O)C(=O)O,185 ± 36 s⁻¹
same,kcat/Km,C[C@H](O)C(=O)O,231000 M⁻¹ s⁻¹
"L-iLDH (NAD-independent L-lactate dehydrogenase) (Stutzerimonas stutzeri) (protein, membrane flavoprotein; wild-type prepared as in earlier report) MIISASTDYRAAAKRKLPPFLFHYVDGGAYAEHTLRRNVEDLASIALRQRVLRNMSELSLETQLFGETLSMPVALAPVGLTGMLARRGEVQAARAADKKGIPFTLSTVSVCPIEEVAPAIKRPMWFQLYVLKDRGFMKNALERAKAAGVTTLVFTVDMPTPGARYRDAHSGMSGPNASVRRILQAMAHPLWAWDVGLHGKPHDLGNITTYRGHTTGLEDYIGWLAANFDPSISWKDLEWIREFWDGPMVIKGILDAEDARDAVTFGADGIIVSNHGGRQLDGVMSSARAMPAIADAVKGDLKILADSGIRNGLDVVRMIALGADTVLLGRAFAYALAVDGEAGVTNLLDLIEKEMRVAMVLTGTKTISEISADSLVREVGHYQTATTSADV",Km,purified protein [2],6800 ± 1000 µM
same,kcat,purified protein [2],8.3 ± 1.3 s⁻¹
same,kcat/Km,purified protein [2],1200 M⁻¹ s⁻¹
same,Km,purified protein [3],180 ± 10 µM
same,kcat,purified protein [3],445 ± 44 s⁻¹
same,kcat/Km,purified protein [3],2.47e+06 M⁻¹ s⁻¹
